Here are results for 1 molecule from patent US20150299272A1 (UNIVERSITY OF NEWCASTLE UPON TYNE, published 2015).

The assay deals with Caf1-FLAG epitope NT (Yersinia pestis, UniProt P26948 1-170). Put plainly: co-expression in E. coli, western blot of partly heat-dissociated polymer. A general note: Immunoblotting shows a protein as a band on a membrane.

B1: Caf1 WT (naturally occurring Caf1 polypeptide monomer from Yersinia pestis; fraction 1 antigen polymer) (other)
chain: ADLTASTTATATLVEPARITLTYKEGAPITIMDNGNIDTELLVGTLTLGGYKTGTTSTSVNFTDAAGDPMYLTFTSQDGNNHQFTTKVIGKDSRDFDISPKVNGENLVGDDVVLATGSQDFFVRSIGSKGGKLAAGKYTDAVTVTVSNQ
Regarding B1, the binding result is on record as “binds”.
